This note sets out measurements from article PMC4840434, “The interactome of Streptococcus pneumoniae and its bacteriophages show highly specific patterns of interactions among bacteria and their phages” (Scientific Reports, 2016).

Experiment in all cases: pull-down; LuMPIS: N-terminally MBP-tagged bait pulled down on amylose beads, N-terminally eGFP-luciferase-tagged prey detected by luciferase activity; both expressed in HEK cells, raw protein extracts; quadruplicates; LIR against MBP without ORF
Experiment [1] deals with Dp-1 orf58, Holin (LuMPIS construct) (phage Dp-1 of S. pneumoniae).
The target in experiment [2] is Dp-1 orf72, Membrane protein (LuMPIS construct) (phage Dp-1 of S. pneumoniae).
Experiment [3] deals with T1, Cp-1 Cpl1, Lysozyme (LuMPIS construct) (phage Cp-1 of S. pneumoniae, UniProt P15057 1-339).
T1 construct: Cpl1 lysozyme of phage Cp-1; ORF in a Gateway LuMPIS vector; source: HEK cells, raw protein extract
T1 sequence: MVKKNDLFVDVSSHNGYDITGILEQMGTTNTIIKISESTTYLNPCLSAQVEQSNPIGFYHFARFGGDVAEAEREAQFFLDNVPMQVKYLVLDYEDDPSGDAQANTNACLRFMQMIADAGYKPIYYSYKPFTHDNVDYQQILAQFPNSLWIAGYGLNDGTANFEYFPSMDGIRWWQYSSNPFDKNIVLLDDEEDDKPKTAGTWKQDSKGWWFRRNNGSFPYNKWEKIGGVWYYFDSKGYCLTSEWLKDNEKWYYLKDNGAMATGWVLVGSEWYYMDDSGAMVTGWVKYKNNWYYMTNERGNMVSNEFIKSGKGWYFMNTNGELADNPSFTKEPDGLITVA
The settings on record: partners not purified.

Regarding “SP_1606, glycosyl transferase, family 2 (LuMPIS construct) (from UniProt A0A0H2UQY5 1-320) (natural protein)”, the LIR (luminescence intensity ratio against MBP alone) in experiment [1] was determined as 3; in experiment [2] it was 50.

B1: SP_1208, uridine kinase (LuMPIS construct) (natural protein, S. pneumoniae TIGR4, UniProt P67413 1-212, looked up)
chain: MQNRPIIIGVTGGSGGGKTSVSRAILSHFPDEKISMIEHDSYYKDQSHLTFEERVKTNYDHPFAFDTDLMIEQIKELLAGRPVDIPTYDYTEHTRSSKTYRQEPQDVFIVEGILVLEDKRLRDLMDIKIFVDTDDDVRIIRRIKRDMEERGRSLDSVINQYLGVVKPMYHQFIESTKRYADIVIPEGVSNTVAIDLLTTKIAKILEEARNSK
notes: SP_1208 uridine kinase, S. pneumoniae TIGR4; ORF in a Gateway LuMPIS vector; source: HEK cells, raw protein extract
As to B1, the “LIR (luminescence intensity ratio against MBP alone)” value in experiment [3] was determined as 4.
